B1: Ab117 (antibody, human IgG4 S228P, kappa, V domains shown)
VH: QVQLVQSGAEVKKPGASVKVSCKVSGGTFSSHDIHWVRQAPGKGLEWMGGINPSDASTIYAQKFQGRVTMTEDTSTDTAYMELSSLKSEDTAVYYCARDLRGYSYGAETWHFQHWGQGTLVTVSS
VL: DIQMTQSPSSVSASVGDRVTITCRASQYISNYLAWYQQKPGKAPKLLIYETSRLESGVPSRFSGSGSGTDFTLTISSLQPEDFANYYCQQTSSTPLTFGGGTKVEIKR
B2: Ab119 (antibody, human IgG4 S228P, kappa, V domains shown)
VH: QVQLVQSGAEVKKPGASVKVSCKVSGYTFTKDHIHWVRQAPGKGLEWMGGITPSSGDTIYAQKFQGRVTMTEDTSTDTAYMELSSLKSEDTAVYYCARDHMVRGLPNYYYGMDLWGQGTTVTVSS
VL: DIQMTQSPSSVSASVGDRVTITCRASRDIANYLAWYQQKPGKAPKLLIYAASILQNGVPSRFSGSGSGTDFTLTISSLQPEDFANYYCQQAYTTPPTFGGGTKVEIKR
B3: Ab120 (antibody, human IgG4 S228P, kappa, V domains shown)
VH: QVQLVQSGAEVKKPGASVKVSCKVSGGTFSTFHIHWVRQAPGKGLEWMGGISAYSGSTIYAQKFQGRVTMTEDTSTDTAYMELSSLKSEDTAVYYCARARYVDDAFDIWGQGTMVTVSS
VL: DIQMTQSPSSVSASVGDRVTITCRASEDISNFLAWYQQKPGKAPKLLIYAASDLLSGVPSRFSGSGSGTDFTLTISSLQPEDFANYYCQKYISAPSFGGGTKVEIKR
B4: Ab116 (antibody, human IgG4 S228P, kappa, V domains shown)
VH: QVQLVQSGAEVKKPGASVKVSCKVSGFTFSRPAIHWVRQAPGKGLEWMGGINPNAATTIYAQKFQGRVTMTEDTSTDTAYMELSSLKSEDTAVYYCARGRLLREWELRPYDTWGQGTLVTVSS
VL: DIQMTQSPSSVSASVGDRVTITCRASQSIGKSLAWYQQKPGKAPKLLIYSASNLRSGVPSRFSGSGSGTDFTLTISSLQPEDFANYYCQQYRDVPPITFGGGTKVEIKR
B5: Ab133 (antibody, human IgG4 S228P, kappa, V domains shown)
VH: EVQLVESGGGLVQPGGSLRLSCAASGFTFSSYGMSWVRQAPGKGLELVASFTGSGGAYYPDSVKGRFTISRDNAKNSLYLQMNSLRAEDTAVYYCARDLLIRFLEWSHYYGMDVWGQGTTVTVSS
VL: DIVMTQSPLSLPVTPGEPASISCRSSQSLLHSSGHNFLHWYLQKPGQSPQLLIYEVSNRVSGVPDRFSGSGSGTDFTLKISRVEAEDVGVYYCQQQTQYPGTFGGGTKVEIKR
notes: human IgG4 in the EM experiment; also called Ab133 Human IgG4
B6: Ab105 (antibody, human IgG4 S228P, kappa, V domains shown)
VH: B5 VH with F27S, T28A, F51I, T52G, S54T, G56A, A57T, I101V, S107G
VL: DIVMTQSPLSLPVTPGEPASISCRSSQSLLHSSGYNFLHWYLQKPGQSPQLLIYAASSRAPGIPDRFSGSGSGTDFTLKISRVEAEDVGVYYCMHGGQGPTFGGGTKVEIKR
B7: Ab130 (antibody, human IgG4 S228P, kappa, V domains shown)
VH: EVQLVESGGGLVQPGGSLRLSCAASGFTFTSYGMSWVRQAPGKGLELVASITGSGGETYYPDSVKGRFTISRDNAKNSLYLQMNSLRAEDTAVYYCARDLLVRFLEWSHYYGMDVWGQGTTVTVSS
VL: B5 VL with V56T, V60A, S61P, V63I, Q96A, Y99F, G101R, T102P
B8: Ab131 (antibody, human IgG4 S228P, kappa, V domains shown)
VH: B5 VH with F27S, T28A, F51I, T52G, S54T, G56A, A57T, I101V, S107G
VL: B6 VL with M94Q
B9: Ab102 (antibody, human IgG4 S228P, kappa, V domains shown)
VH: B7 VH
VL: B5 VL with V56T, V60A, S61P, V63I, Q94M, Q96A, Y99F, G101R, T102P
B10: Ab125 (antibody, human IgG4 S228P, kappa, V domains shown)
VH: EVQLVQSGAEVKKPGESLKISCKGSGNRISDYWMNWVRQVPGKGLEWMGNIYPGYSDATYNRKFKGQVTISADKSISTAYLQWSSLKASDTAIYYCARGRDGYNYFAAFDIWGQGTMVTVSS
VL: EIVLTQSPATLSLSPGERATLSCRASQSVASSYLAWYQQKPGQAPRLLIYDTSSRAAGIPARFSGSGSGTDFTLTISSLEPEDFAVYYCHQYGSSLTTFGGGTKVEIKR

Residue numbers refer to the chain shown, from its start.

mouse GDF-11, sequence (Q9Z1W4 297-405 limits assumed): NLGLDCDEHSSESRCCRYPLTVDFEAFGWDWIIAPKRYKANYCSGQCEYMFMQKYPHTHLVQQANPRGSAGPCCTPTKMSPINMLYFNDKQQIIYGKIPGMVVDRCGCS

For one test, the target named is T1, murine pro-myostatin (mouse, UniProt O08689 25-376, biotinylated (in the SPR assay)).
T1 construct: also called proGDF8 (mouse); mouse pro-myostatin
In words: plate binding assay, OD 450 nm, antibody titrated 0.0003 to 100 nM, panel 'Mu-Pro-GDF-8 Plate 2' (method not described in the text).
In the case of B1, the binding result was “binds”.
As to B2, the binding result was “binds”.
As to B3, the binding result is reported as “binds”.
With B4, the EC50 (read off the curve) (in general, the concentration that produces a half-maximal response) is roughly 1 nM.

In another test the target is T2, recombinant human latent myostatin (human, UniProt O14793 24-375, biotinylated (in the Octet pH assay only)). In words: cell-based or functional assay.
As to B5, the “mTLL2 IC50” value amounted to 0.161 nM.
In the case of B6, the “mTLL2 IC50” value stood at 0.25 nM.
Same read-out and setting: with B7 the figure was 0.33 nM; with B8, 0.208 nM.
Take B9: the “mTLL2 IC50” value came to 0.346 nM.

The target of another test is T3, human pro-myostatin (human, UniProt O14793 24-375, biotinylated (in the SPR assay)).
T3 construct: Disulfide-linked homodimer; also called proGDF8 (human)
In words: plate binding assay, OD 450 nm, antibody titrated 0.0003 to 100 nM, panel 'Hu-Pro-GDF-8 Plate 2' (method not described in the text).
As for B1, the binding result was “binds”.
In the case of B2, the binding result is recorded as “binds”.
Turning to B4, the “EC50 (read off the curve)” value is roughly 1 nM.

Another test addresses T1, murine pro-myostatin. In words: plate binding assay, OD 450 nm, antibody titrated 0.0003 to 100 nM, panel 'Mu-Pro-GDF-8 Plate 3' (method not described in the text).
Take B10: the “EC50 (read off the curve)” value is roughly 0.2 nM.

The target in another test is T2, recombinant human latent myostatin. In words: cell-based or functional assay. The source holds these as a separate data set.
In the case of B5, the “IC50 (nM) Latent + mTLL2” value came out at 0.161 nM.
With B6, the “IC50 (nM) Latent + mTLL2” value came to 0.25 nM.
For the molecule B9, the “IC50 (nM) Latent + mTLL2” value is 0.162 nM.
For the molecule B10, the “IC50 (nM) Latent + mTLL2” value is 0.202 nM.

The target in a further test is T3, human pro-myostatin. In words: cell-based or functional assay.
B6: the “IC50 (nM) Pro + Furin” value turned out to be 0.356 nM.
Turning to B9, the “IC50 (nM) Pro + Furin” value is 0.211 nM.

A further test concerns the target mouse GDF-11 (mouse, UniProt Q9Z1W4 297-405, limits assumed). In words: plate binding assay, OD 450 nm, one antibody concentration that is not given, on Mu-GDF-11 (method not described in the text).
For the molecule B1, the binding result is on record as “no binding”.
For B2, the binding result was “no binding”.
The same measure, in the same setting: with B3 the entry was “no binding”.
On to B10, for which the binding result is on record as “no binding”.
In the case of B4, the binding result is given as “no binding”.

A further test deals with T2, recombinant human latent myostatin. In words: cell-based or functional assay. The source holds these as a separate data set.
In the case of B5, the “IC50 of inhibition of myostatin activation by mTLL-2 (functional ELISA, FIG. 1B)” value was 0.16 nM.
Take B7: the “IC50 of inhibition of myostatin activation by mTLL-2 (functional ELISA, FIG. 1A)” value worked out at 0.31 nM and the “IC50 of inhibition of myostatin activation by mTLL-2 (functional ELISA, FIG. 1B)” value was determined as 0.3 nM.

In the next test the target is human GDF-11 (human, UniProt O95390 299-407, limits assumed). In words: plate binding assay, OD 450 nm, one antibody concentration that is not given, on Hu-GDF-11 (method not described in the text).
human GDF-11, sequence (O95390 299-407 limits assumed): as the sequence (Q9Z1W4 297-405 limits assumed) above
B1: the binding result is “no binding”.
Same read-out and setting: then B2, with “no binding”; and B3, with “no binding”; and B10, with “no binding”.
As to B4, the binding result is recorded as “no binding”.

The target in the next test is T3, human pro-myostatin. In words: SPR Biacore 8K, biotin-antigen captured. For orientation: SPR reads the build-up and loss of mass on a sensor chip optically.
For the molecule B5, the Kd (in general, the constant that tells how readily two partners part at equilibrium) is 0.041 nM; the koff – broadly, a measure of how fast the partners let go of each other – worked out at 0.000116 s⁻¹; the kon (commonly a measure of how fast the partners come together) was 2.84e+06 M⁻¹ s⁻¹.
Turning to B6, the affinity, expressed as Kd, was 0.051 nM; the koff is 0.000247 s⁻¹; the kon was 4.89e+06 M⁻¹ s⁻¹.
The matching figures for B9: 0.058 nM, 0.000376 s⁻¹ and 6.49e+06 M⁻¹ s⁻¹.

A further test addresses T1, murine pro-myostatin. In words: SPR Biacore 8K, biotin-antigen captured.
Molecule B5 showed a Kd of 0.054 nM, a koff of 0.000162 s⁻¹ and a kon of 3.01e+06 M⁻¹ s⁻¹.
The matching figures for B6: 0.046 nM, 0.000276 s⁻¹ and 5.99e+06 M⁻¹ s⁻¹.
Molecule B9 had a Kd of 0.082 nM, an off-rate (koff) of 0.0005 s⁻¹ and a kon of 6.11e+06 M⁻¹ s⁻¹.
Consider B10, for which binding was characterised by a dissociation constant (Kd) of 0.125 nM, the koff stood at 0.000411 s⁻¹ and the kon is 3.29e+06 M⁻¹ s⁻¹.

The target of another test is T4, cyno pro-myostatin (cynomolgus monkey, Biotinylated for capture in the SPR assay (site not stated). The native form is a disulfide-linked homodimer, partly furin-cleaved; one chain is given.).
T4 construct: also called proGDF8 (cynomolgus); cynomolgus monkey pro-myostatin
In words: SPR Biacore 8K, biotin-antigen captured.
Take B5: the Kd is 0.0383 nM, the koff was 0.000109 s⁻¹ and the association rate constant (kon) was 2.86e+06 M⁻¹ s⁻¹.
For the molecule B6, the Kd worked out at 0.044 nM, the koff was found to be 0.000233 s⁻¹ and the kon is 5.26e+06 M⁻¹ s⁻¹.
Regarding B9, binding was characterised by a dissociation constant (Kd) of 0.049 nM, the off-rate constant (koff) was 0.000335 s⁻¹ and the kon was 6.8e+06 M⁻¹ s⁻¹.

The next test deals with T3, human pro-myostatin. In words: Ab KD, summary Table 11; method and antigen not stated there.
The molecule B5 gave a Kd of 0.041 nM.
Still for that read-out and setting: then B6, with 0.229 nM.
The molecule B7 showed a dissociation constant (Kd) of 0.35 nM.
Still for that read-out and setting: then B8, with 0.155 nM; and B9, with 0.329 nM.

A further test concerns the target T2, recombinant human latent myostatin. In words: BLI Octet Red384, biotin human latent myostatin on streptavidin tips. The procedure:
Binding was performed at pH 7.4 and dissociation at pH 5.5 in an Octet Red384@assay. Streptavidin biosensors were baselined in 1x kinetics buffer (KB) (Sartorius) for one minute, then loaded with 100 nM biotinylated human latent myostatin for five minutes, followed by another baseline step of one minute in 1x KB. Binding of test antibodies was performed for five minutes and then dissociation was performed in PBS at either pH 7.4 or pH 5.5 for five minutes. Analysis was performed using a partial fit, in which full dissociation was projected. Kd at pH 5.5 was divided by Kd at pH 7.4 to calculate pH sensitivity.
A general note: Biolayer interferometry detects binding as a change in optical thickness at a sensor tip.
As to B5, the “fold difference in off-rate (Kd at pH 5.5 / Kd at pH 7.4)” value was 17.5 fold.
With B6, the “fold difference in off-rate (Kd at pH 5.5 / Kd at pH 7.4)” value was 0.8 fold.
With B7, the “fold difference in off-rate (Kd at pH 5.5 / Kd at pH 7.4)” value came to 10.6 fold.
Turning to B8, the “fold difference in off-rate (Kd at pH 5.5 / Kd at pH 7.4)” value stood at 0.9 fold.
As for B9, the “fold difference in off-rate (Kd at pH 5.5 / Kd at pH 7.4)” value amounted to 9.3 fold.

For the origin of these results see patent US20260209325A1 (SCHOLAR ROCK, published 2026).
